Tests used:
[1] = molecular target: T1, human IL-21 (human, UniProt Q9HBE4 25-162, limits assumed); test: SPR (Bio-Rad XPR36), average of the five wells of Table 6; mean of the five single KDs, SD 0.74x10^-9
T1 construct: also called hIL-21; full length hIL-21
Experimental: (§1) Surface Plasma Resonance binding kinetics assay were performed on a Bio-rad XPR36 system by the direct amine coupling method. Briefly, a flow of mixture of EDC [N-ethyl-N′-(3-[…]-propyl)carbodiimide] and NHS (N-hydroxysuccinimide) was used to activate the cell surface of a GLC sensor chip before 25 μg/ml anti-IL-21 mAb was flowed through, then a shot flow of ethanolamine was used to block the remaining active sites on the cell surface. Afterwards, serial diluted solutions of IL-21 from 0 to 40 nM were flown over the cell surface to bind to the immobilized anti-IL-21 mAb molecules. Binding kinetics were performed at 25° C. with a flow rate of 30 μL/min, association time of 3 min and dissociation time of 6 min. The buffer consisted of Hepes, NaCl, tween20, and 1 mg/mL BSA at pH 7.4. The flow cell regeneration buffer between cycles was 15 mM phosphoric acid. Double references were used to process the sensorgrams. The binding curves were globally fit to the 1:1 Langmuir binding model.

[2] = molecular target: T2, Peptide 4 of hIL-21 (P4, 23aa) (human); test: ELISA, biotinylated antibody on coated peptide
T2 peptide: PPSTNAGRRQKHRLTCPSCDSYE
Experimental: (§2) To detect epitopes of 2P2 and 3A3, peptides consisting of different regions of hIL-21 were synthesized commercially and coated on an ELISA plate, followed by blocking of non-specific binding sites with 3% BSA in PBS. Biotinylated 2P2 or 3A3 were then added to the wells and developed with Streptavidin-HRP and TMB substrates.
(§3) An ELISA assay was used to examine binding between antibodies 2P2 and 3A3 and a Streptavidin-HRP secondary only control to each of the peptides P1 to P5, hIL-21 and OVA peptide. […] Thus, the epitope recognized by antibody 2P2 comprised a minimal sequence of 9 mer to 15 mer, with the core sequence being […] (SEQ ID NO 23). Binding was stronger with the sequence CPSCD was also present and strongest binding was observed when the sequences IKKLK, CPSCD and […] were present.

[3] = molecular target: T3, Peptide 5 of hIL-21 (P5, 15aa) (human); test: ELISA, biotinylated antibody on coated peptide
T3 peptide: PPSTNAGRRQKHRLT
Experimental: as §2, §3

[4] = molecular target: T1, human IL-21; test: cell-based or functional assay
[5] = molecular target: mIL21 (Mus musculus, UniProt Q9ES17); test: ELISA: mouse IL-21 coated on the plate, biotinylated 2P2 alone or spiked with Peptide 3, Streptavidin-HRP, TMB, A450
[6] = molecular target: T4, P1; test: peptide ELISA: peptide coated on the plate, biotinylated antibody, Streptavidin-HRP, TMB, A450
T4 construct: also called Peptide 1 (P1, 30aa); peptide 1 of hIL-21

[7] = molecular target: T5, P2; test: as above
T5 construct: also called Peptide 2 (P2, 27aa); peptide 2 of hIL-21
T5 peptide: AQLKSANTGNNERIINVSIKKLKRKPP

[8] = molecular target: T1, human IL-21; test: SPR (Bio-Rad XPR36), stated average of n=5 measurements; stated final affinity, average of n=5 (table 6)
Experimental: as §1

[9] = molecular target: T6, Peptide 3 of hIL-21 (P3, 30aa) (human); test: ELISA: Peptide 3 coated on the plate, biotinylated 2P2 alone or spiked with Peptide 3, Streptavidin-HRP, TMB, A450
T6 peptide: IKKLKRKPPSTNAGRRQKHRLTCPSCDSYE

T1 sequence (Q9HBE4 25-162 limits assumed): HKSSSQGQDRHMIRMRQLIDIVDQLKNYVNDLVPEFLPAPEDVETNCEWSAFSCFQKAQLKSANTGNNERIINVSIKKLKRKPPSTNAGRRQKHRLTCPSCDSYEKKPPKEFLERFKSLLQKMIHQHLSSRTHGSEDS
T4 sequence (peptide, as listed by the source): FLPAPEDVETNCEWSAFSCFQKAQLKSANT

B1: monoclonal antibody 2P2 (antibody, V domains shown)
VH: EVQLQQSGADLVRSGASVKLSCTASGFNIKDYYIHWVKQRPEQGLELIGWIDPESGDTEYAPKFQVKATMTADTSSNTAYLQLSSLTSEDTAVYYCNDGSGYWGQGTTLTVSS
VL: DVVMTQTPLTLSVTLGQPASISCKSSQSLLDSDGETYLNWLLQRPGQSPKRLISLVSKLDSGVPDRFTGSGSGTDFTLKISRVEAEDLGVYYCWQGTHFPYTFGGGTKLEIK
notes: It was biotinylated in the ELISA assays and unlabelled, amine-coupled to the chip, in SPR; also called mAb 2P2; mAB 2P2
[1]
  Kd: 3.33 nM
[2]
  binding result: binds
[3]
  binding result: binds
[4]
  bioactivity of human IL-21 on Ba/F3-hIL-21R cell proliferation at 10 µg/ml 2P2: > 10 fold
  hIL-21 bioactivity on human CD8 T cell activation (granzyme B and perforin): > 10 fold
  hIL-21 mediated human B cell proliferation (CFSE dilution); 5 ng/ml hIL-21 plus 1 µg/ml 2P2 compared with 100 ng/ml hIL-21: ~20 fold
[5]
  binding result: no binding
[6]
  binding result: no binding
[7]
  binding result: no binding
[8]
  Kd: 3 nM
[9]
  binding result: binds

— patent publication US20160145332A1 (MONASH UNIVERSITY, published 2016)
